From publication PMC9834408, “The SPOC domain is a phosphoserine binding module that bridges transcription machinery with co- and post-transcriptional regulators” (Nature Communications, 2023)

B1: DIDO SPOC R1096A (domain or fragment)
chain: TLFLSRLSTIWKGFINMQSVAKFVTKAYPVSGCFDYLSEDLPDTIHIGGAIAPKTVWDYVGKLKSSVSKELCLIRFHPATEEEEVAYISLYSYFSSRGRFGVVANNNRHVKDLYLIPLSAQDPVPSKLLPFEGPGLESPRPNIILGLVICQKIKRPANS
B2: PHF3 SPOC R1248A (domain or fragment)
chain: STFLARLNFIWKGFINMPSVAKFVTKAYPVSGSPEYLTEDLPDSIQVGGAISPQTVWDYVEKIKASGTKEICVVRFTPVTEEDQISYTLLFAYFSSRKRYGVAANNMKQVKDMYLIPLGATDKIPHPLVPFDGPGLELHRPNLLLGLIIRQKLKRQHS

Molecular target: 2×S2P CTD diheptapeptide
Test: fluorescence polarisation; fluorescence anisotropy; 90 nM labelled peptide (Atto-488 on CTD peptides, FAM on NCoR and FMR1 peptides) titrated with increasing concentrations of SPOC domain; 20 °C; 25 mM Tris-Cl pH 7.4, 25 mM NaCl, 1 mM DTT; three independent dilution series

Row | Binder | Kd
1 | B1 | 22.4 µM
2 | B2 | 8.4 µM
